# In patent publication US6403764:
# Assays:
# [1] = biological target: T1, human IGFBP-1 (human, UniProt P08833 26-259); test: competitive phage ELISA
# T1 construct: mature; Secreted recombinant protein; also called IGFBP-I
# T1 sequence (looked up): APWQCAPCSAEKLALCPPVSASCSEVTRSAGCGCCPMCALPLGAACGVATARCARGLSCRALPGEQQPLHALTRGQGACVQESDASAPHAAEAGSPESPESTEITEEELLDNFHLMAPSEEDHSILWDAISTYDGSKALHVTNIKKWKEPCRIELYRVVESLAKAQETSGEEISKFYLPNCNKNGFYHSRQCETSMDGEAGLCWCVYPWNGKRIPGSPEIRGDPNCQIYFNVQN
# Procedure: (§1) Phage particles were harvested and resuspended in PBS buffer as described in Lowman, H. B., "Phage Display of Peptide Libraries on Protein Scaffolds," in Cabilly, S. (ed.), *Combinatorial Peptide Library Protocols* (Humana Press Inc.: Totowa, N.J., 1998), pp. 249–264. Then phage concentrations were normalized to yield a maximal ELISA signal of 0.2–0.4 for each mutant (Lowman, in Cabilly, S. (ed.), supra). Threefold serial dilutions of soluble competitor were prepared on non-absorbent microtiter plates (Nunc, F, 96 wells) with binding buffer (0.5% TWEEN™ 20/PBS) containing phage at the previously-determined concentrations. The dilution range of competitor protein extended over six orders of magnitude, starting at 5 µM for IGFBP-1 and 500 nM for IGFBP-3. After blocking, the plates containing immobilized target were washed with 0.05% TWEEN™/PBS buffer and subsequently incubated with 80 µl/well of the premixed phage-competitor solutions for 1 hour at room temperature. […] Numbers in Table I represent mean±standard deviation of individually assessed $IC50$ values.
# (§2) At least two different clones of every mutant were tested.
# [2] = biological target: T2, recombinant human IGFBP-3 (human, UniProt P17936 28-291); test: competitive phage ELISA
# T2 construct: mature; Secreted recombinant protein
# Procedure: as §1, §2
# T2 sequence (P17936 28-291): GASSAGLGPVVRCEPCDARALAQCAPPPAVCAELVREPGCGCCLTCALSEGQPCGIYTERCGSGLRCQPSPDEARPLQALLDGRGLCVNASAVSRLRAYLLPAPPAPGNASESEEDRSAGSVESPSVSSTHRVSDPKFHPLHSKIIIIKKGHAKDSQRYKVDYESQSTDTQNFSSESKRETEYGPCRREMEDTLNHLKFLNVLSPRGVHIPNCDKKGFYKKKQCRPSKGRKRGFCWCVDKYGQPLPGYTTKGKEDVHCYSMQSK
Binder,IC50 [1],IC50 [2]
"IGF-I L14A displayed on phage (ligand, On phage; G1S-A70V template; not shown: M13 gene III fragment (residues 249-406), the display carrier, and its junction) SPETLCGAELVDAAQFVCGDRGFYFNKPTGYGSSSRRAPQTGIVDECCFRSCDLRRLEMYCAPLKPAKSV",36.7 nM,0.9 nM
"IGF-I F16A displayed on phage (ligand, On phage; G1S-A70V template; not shown: M13 gene III fragment (residues 249-406), the display carrier, and its junction) SPETLCGAELVDALQAVCGDRGFYFNKPTGYGSSSRRAPQTGIVDECCFRSCDLRRLEMYCAPLKPAKSV",57.8 nM,1.32 nM
"IGF-I L54A displayed on phage (ligand, On phage; G1S-A70V template; not shown: Display partner: M13 gene III protein fragment (residues 249-406, mature count) and the junction to it) SPETLCGAELVDALQFVCGDRGFYFNKPTGYGSSSRRAPQTGIVDECCFRSCDARRLEMYCAPLKPAKSV",23.1 nM,1.83 nM
"IGF-I Q15A displayed on phage (ligand, On phage; G1S-A70V template; not shown: M13 gene III fragment (residues 249-406), the display carrier, and its junction) SPETLCGAELVDALAFVCGDRGFYFNKPTGYGSSSRRAPQTGIVDECCFRSCDLRRLEMYCAPLKPAKSV",13.9 nM,1.26 nM
"IGF-I K68A displayed on phage (ligand, not shown: large carriers; small tags and cut ends, On phage; G1S-A70V template) SPETLCGAELVDALQFVCGDRGFYFNKPTGYGSSSRRAPQTGIVDECCFRSCDLRRLEMYCAPLKPAASV",10.5 nM,0.76 nM
"IGF-I F23A displayed on phage (ligand, On phage; G1S-A70V template; not shown: Display carrier: M13 gene III protein fragment (residues 249-406) and the junction to it) SPETLCGAELVDALQFVCGDRGAYFNKPTGYGSSSRRAPQTGIVDECCFRSCDLRRLEMYCAPLKPAKSV",10.9 nM,2.18 nM
"IGF-I E58A displayed on phage (ligand, On phage; G1S-A70V template; not shown: M13 gene III protein fragment (residues 249-406), the phage display carrier, and its junction to IGF-I) SPETLCGAELVDALQFVCGDRGFYFNKPTGYGSSSRRAPQTGIVDECCFRSCDLRRLAMYCAPLKPAKSV",11.9 nM,1.03 nM
"IGF-I L64A displayed on phage (ligand, On phage; G1S-A70V template; not shown: M13 gene III protein fragment (residues 249-406), the phage display carrier, and its junction to IGF-I) SPETLCGAELVDALQFVCGDRGFYFNKPTGYGSSSRRAPQTGIVDECCFRSCDLRRLEMYCAPAKPAKSV",12.1 nM,0.93 nM
"IGF-I N26A displayed on phage (ligand, On phage; G1S-A70V template; not shown: Display carrier: M13 gene III protein fragment (residues 249-406) and the junction to it) SPETLCGAELVDALQFVCGDRGFYFAKPTGYGSSSRRAPQTGIVDECCFRSCDLRRLEMYCAPLKPAKSV",9.1 nM,0.9 nM
"IGF-I S35A displayed on phage (ligand, not shown: large carriers, On phage; G1S-A70V template) SPETLCGAELVDALQFVCGDRGFYFNKPTGYGSSARRAPQTGIVDECCFRSCDLRRLEMYCAPLKPAKSV",11.7 nM,0.47 nM
"IGF-I F25A displayed on phage (ligand, On phage; G1S-A70V template; not shown: Display carrier: M13 gene III protein fragment (residues 249-406) and the junction to it) SPETLCGAELVDALQFVCGDRGFYANKPTGYGSSSRRAPQTGIVDECCFRSCDLRRLEMYCAPLKPAKSV",181 nM,3.69 nM
"IGF-I E3A displayed on phage (ligand, not shown: large carriers; small tags and cut ends, On phage; G1S-A70V template) SPATLCGAELVDALQFVCGDRGFYFNKPTGYGSSSRRAPQTGIVDECCFRSCDLRRLEMYCAPLKPAKSV",278 nM,1.05 nM
"IGF-I D20A displayed on phage (ligand, On phage; G1S-A70V template; not shown: Display carrier: M13 gene III protein fragment (residues 249-406) and the junction to it) SPETLCGAELVDALQFVCGARGFYFNKPTGYGSSSRRAPQTGIVDECCFRSCDLRRLEMYCAPLKPAKSV",8.4 nM,1.11 nM
"IGF-I R56A displayed on phage (ligand, On phage; G1S-A70V template; not shown: Display partner: M13 gene III protein fragment (residues 249-406, mature count) and the junction to it) SPETLCGAELVDALQFVCGDRGFYFNKPTGYGSSSRRAPQTGIVDECCFRSCDLRALEMYCAPLKPAKSV",13.1 nM,1 nM
"IGF-I L10A displayed on phage (ligand, On phage; G1S-A70V template; not shown: M13 gene III fragment (residues 249-406), the display carrier, and its junction) SPETLCGAEAVDALQFVCGDRGFYFNKPTGYGSSSRRAPQTGIVDECCFRSCDLRRLEMYCAPLKPAKSV",311 nM,3.55 nM
